Results: paper PMC3249379
Like-named read-outs stand apart in the source and are kept apart here.

What was measured:
Assay in all cases: AUC
[1] = molecular target: GluA4 flip ectodomain, L484Y mutant (R. norvegicus)
[2] = molecular target: GluA4 flip ectodomain, L484Y mutant (R. norvegicus); remark: listed apart in the source
[3] = molecular target: GluA4 flip ectodomain, wild type (NTD and LBD in a tandem array) (R. norvegicus)

Kd [1] [nM]	Kd [2] [nM]	stoichiometry N [2]	Kd [3] [nM]	stoichiometry N [3]	Substance
1500	1100	4	–	–	GluA4 flip ectodomain, L484Y mutant (domain or fragment)
–	–	–	300	2	GluA4 flip ectodomain, wild type (NTD and LBD in a tandem array) (domain or fragment)
